The source of these data is patent publication EP4803139A2 (Amgen Inc., dated 2026).

In the test the target is T1, PCSK2 (R&D Systems) (UniProt P16519 26-638, limits assumed).
T1 sequence (looked up): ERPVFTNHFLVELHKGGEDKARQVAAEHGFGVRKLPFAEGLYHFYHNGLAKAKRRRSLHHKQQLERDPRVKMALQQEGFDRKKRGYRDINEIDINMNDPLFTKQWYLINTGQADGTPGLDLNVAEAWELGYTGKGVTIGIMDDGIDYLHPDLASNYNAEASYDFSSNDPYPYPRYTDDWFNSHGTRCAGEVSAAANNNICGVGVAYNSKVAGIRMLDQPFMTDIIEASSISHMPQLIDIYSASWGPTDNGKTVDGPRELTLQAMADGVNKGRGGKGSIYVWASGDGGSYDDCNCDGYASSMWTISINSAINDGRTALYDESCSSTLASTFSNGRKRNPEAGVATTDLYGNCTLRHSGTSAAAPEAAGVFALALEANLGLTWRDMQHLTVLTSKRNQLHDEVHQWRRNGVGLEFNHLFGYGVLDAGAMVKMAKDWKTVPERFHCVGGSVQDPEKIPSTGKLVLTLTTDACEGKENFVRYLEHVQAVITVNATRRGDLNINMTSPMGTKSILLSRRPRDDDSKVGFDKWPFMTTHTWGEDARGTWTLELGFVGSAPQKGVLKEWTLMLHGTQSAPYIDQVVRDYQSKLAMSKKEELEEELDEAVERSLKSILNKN
Put plainly: competition ELISA: 0.4 µg/mL 11F1 pre-incubated with the convertase in solution, then binding to plate-captured biotinylated PCSK9.

B1: 11F1, anti-PCSK9 antibody (antibody, V domains shown)
VH: EVQLVESGGGLVQPGGSLRLSCAASGFTFSNYWMSWVRQAPGKGLEWVASIKQDGSEKYYVDSVKGRFAISRDNAKNSLFLQMNSLRAEDTAVYYCARDLVLMVYDIDYYYYGMDVWGQGTTVTVSS
VL: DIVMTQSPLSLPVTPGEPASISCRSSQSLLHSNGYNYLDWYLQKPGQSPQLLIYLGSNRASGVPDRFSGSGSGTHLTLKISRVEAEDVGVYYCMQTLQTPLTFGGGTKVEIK
On to B1, for which the binding result is reported as “no binding (tested: 0 to 20 µg/mL)”.
